Blank lines part the entries; values can stand above or below the binder they belong to.
Tests used:
Fc-p40 fusion protein = molecular target: T1, Fc-p40 fusion protein (human, UniProt P29460 23-328); test: co-expression in 293 cells, protein A Sepharose precipitation of 35S-labelled supernatant, SDS-PAGE
T1 construct: mature; Expected to dimerize through the Fc; not shown: human IgG1 Fc (vector pdC-Fc-X)
T1 sequence (looked up): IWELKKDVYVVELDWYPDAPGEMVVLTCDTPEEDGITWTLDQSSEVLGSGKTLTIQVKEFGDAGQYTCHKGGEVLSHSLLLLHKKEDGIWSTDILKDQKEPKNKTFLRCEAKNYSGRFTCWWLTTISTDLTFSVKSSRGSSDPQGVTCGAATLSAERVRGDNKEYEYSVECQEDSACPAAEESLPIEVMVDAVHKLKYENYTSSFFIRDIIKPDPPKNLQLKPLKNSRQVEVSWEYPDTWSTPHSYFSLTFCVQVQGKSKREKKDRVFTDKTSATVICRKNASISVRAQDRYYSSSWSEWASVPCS
Experimental: (§1) After 16 hr, the medium containing the precipitate was removed and replaced with fresh medium. After 3 days, the supernatant was removed and analyzed for production of transfected gene expression by ELISA, biological determination of IL-12 activity, or immunoprecipitation and analysis on SDS gels of radioactively labeled proteins. For labeling, medium without methionine was used to replace the growth medium on the second day of culture and ³⁵S-methionine (100 μCi/ml) is added. After an additional 16 hr incubation, the media was harvested, clarified by centrifugation (5 min at 13,000 rpm in a table top microcentrifuge) and incubated with protein A Sepharose beads (10 μl of bead volume per ml of culture supernatant). After 1 hr at room temperature, the beads were washed by repeated centrifugation and resuspension in PBS buffer containing 1% NP-40. The final pellet was resuspended in SDS-containing gel buffer and boiled for 2 min. After removing the beads by centrifugation, the supernatant was divided into two aliquots. Reducing agent (5% 2-mercaptoethanol) was added to one sample and both are boiled for 5 min prior to loading on an SDS polyacrylamide gel. After electrophoresis the gel was exposed to X-ray film (autoradiography).
(§2) An example of an analysis of the co-expression of various fusion proteins and individually expressed proteins, under reducing conditions, is shown in FIG. 2. […] The p40 subunit, on the other hand, was readily secreted when fused to Fc (lane 2). The p35 subunit was secreted when it could pair with the p40 subunit, either as an Fc-p35 fusion pairing with an Fc-p40 fusion protein (lane 3), the Fc-p35 pairing with free p40 (lane 4), or free p35 pairing with the Fc-p40 fusion protein (lane 5). In all cases of expression of a free subunit, together with a fusion protein, the free subunit assembles with the other subunit and forms a covalent, disulfide bond. […]

[1] = molecular target: T2, free p40 subunit of human IL-12 (human, UniProt P29460 23-328); test: as above
T2 construct: mature
T2 sequence (looked up): T1 sequence (looked up)
Experimental: as §1, §2

binding result (Fc-p40 fusion protein): binds
B1: free p35 subunit of human IL-12 (ligand, UniProt P29459 23-219, looked up)
chain: RNLPVATPDPGMFPCLHHSQNLLRAVSNMLQKARQTLEFYPCTSEEIDHEDITKDKTSTVEACLPLELTKNESCLNSRETSFITNGSCLASRKTSFMMALCLSSIYEDLKMYQVEFKTMNAKLLMDPKRQIFLDQNMLAVIDELMQALNFNSETVPQKSSLEEPDFYKTKIKLCILLHAFRIRAVTIDRVMSYLNAS
notes: mature

binding result [1]: binds
binding result (Fc-p40 fusion protein): binds
B2: Fc-p35 fusion protein (Fc fusion, human, UniProt P29459 23-219, looked up)
chain: B1 chain
notes: mature; Expected to dimerize through the Fc; Not secreted unless paired with p40; not shown: human IgG1 Fc (vector pdC-Fc-X)

Source: patent US20020193570A1 (EMD LEXIGEN RESEARCH CENTER, published 2002)
